Results published in US20240252795A1, “INGESTIBLE DEVICE FOR DELIVERY OF THERAPEUTIC AGENT TO THE GASTROINTESTINAL TRACT” (BIORA THERAPEUTICS, INC., priority 2018, published 2024).

Experiments:
[1] = Adalimumab plasma PK after ID (2-nozzle jet delivery device), SC or IV administration; assay type: in vivo, female Yorkshire pigs (Sus scrofa domesticus)
Protocol: A total of 21 healthy female Yorkshire pigs (Sus scrofa domesticus) having a body weight of 25-30 kg were used in this study. Five (N=5) were used in each of dose Groups 1-3 (intraduodenal (ID) administration via an endoscopically placed ingestible device), and three (N=3) were used in each of dose Group 4 (SC administration) and dose Group 5 (IV administration). The study design is shown below in Table 16.
Animals were housed two per cage and fasted for a minimum of 12 hours prior to dosing. Food was returned at 4 hours post-dose. Water was supplied ad libitum. The dosing was as follows: Dose day 1: group 1 (n=3), and group 3 (n=2); Dose day 2: group 2 (n=3), and group 1 (n=2); Dose day 3: group 3 (n=3), and group 2 (n=2); Dose day 4: groups 4 (n=3), and group 5 (n=3). Following the 240-hour post-dose blood collection the animal was euthanized via euthanasia solution IV bolus dose.
For subcutaneous (SC) administration, animals were placed in dorsal recumbence and the SC injection site asceptically prepared with alcohol. The test article was administered as an SC injection into a “skin tent” on the belly of the pig.
(§1) Each blood sample was collected from the pig jugular vein, or other suitable vessel via direct venipuncture, placed into a chilled tube containing K2-EDTA as the anticoagulant, and inverted several times to mix. Blood samples were kept on wet ice until centrifugation. […] Plasma was collected into pre-labeled polypropylene tubes and placed in a freezer set to maintain −60 to −80° C. prior to analysis.
All plasma samples were diluted by 1:100 dilution. Plasma samples were reanalyzed with a 1:1000 dilution from animals 6287, 6289, 6332, 6334, 6336, 6149, 6335, and 6337. Plasma samples close to the lower limit of quantification (LLOQ) were repeated with a 1:5 dilution from animals 6138 and 6137. […] Therefore, the data from animal 6138 and 6137 were not included in the final PK analysis. […] The area under the concentration curve (AUC) was calculated with the trapezoidal rules.

[2] = Adalimumab plasma PK after ID administration via 4-nozzle jet delivery device; assay type: in vivo, female Yorkshire pigs (Sus scrofa domesticus); conditions: for AUC0-10 (±SEM) / Tmax: 40 mg, N=4, plasma; for AUC0-10 Corrected for Dose (±SEM): N=4; for Bioavailability over IV (±SEM): vs Example 5 IV control; for Bioavailability over IV (±SEM) / Bioavailability over SC (±SEM): AUC corrected for dose used; for Bioavailability over SC (±SEM): vs Example 5 SC control
Protocol: A total of 9 healthy female Yorkshire pigs (Sus scrofa domesticus) having a body weight of 24-30 kg were used in this study. […] Each dose group received test article via intraduodenal (ID) administration. The study design is shown below in Table 21.
Animals were housed two per cage and fasted for a minimum of 12 hours prior to dosing. Food was returned at 4 hours post-dose. Water was supplied ad libitum. The dosing was as follows: Dose day 1: group 1 (n=2), and group 2 (n=3); Dose day 2: group 2 (n=3), and group 1 (n=2).
Intraduodenal (ID) administration was performed as follows.
as §1
(§2) All plasma samples were diluted by 1:100 dilution. Diluted samples were processed in duplicates and the mean Optical Density (O.D.) was measured using a SpectraMax plate reader is and utilizing SoftMax Pro software for analysis. The Lower Limit of Quantification (LLOQ) was calculated by adding 10× the standard deviation value of the blanks O.D. to the average of the blank standard O.D. values. […] The area under the concentration curve (AUC) was calculated with the trapezoidal rules.
The PK results were compared to a subset of data from Example 5. The bioavailability was determined by comparison with Example 5 control arms (SC and IV administration).

TNFα = TNFα (Homo sapiens, UniProt P01375); experiment: LOCI competitive inhibition assay of adalimumab binding to TNFα after jet dispensing; conditions: delivery pressures up to 300 psi, nozzle diameter down to 0.35 mm
TNFα, sequence (P01375 77-233 limits assumed): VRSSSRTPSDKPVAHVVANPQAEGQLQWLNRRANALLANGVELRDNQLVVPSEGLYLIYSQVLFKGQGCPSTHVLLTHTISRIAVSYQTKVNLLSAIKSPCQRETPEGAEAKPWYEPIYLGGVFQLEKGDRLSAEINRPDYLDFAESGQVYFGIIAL
Protocol: The drug (adalimumab) was loaded into the ingestible device and fired through a nozzle with varying diameters at various pressure conditions.
FIGS. 57A-57B illustrate the general principle of the assay.
Drug binding was detected using Luminescent Oxygen Channeling (LOCI™)—a competitive binding assay. Signal was detected by comparing to a non-drug carrier control and an artificially damaged drug using a commercial FAB fragmentation kit.
Drug function was determined through a competition binding assay comparing drug binding function for drug dispensed via standard delivery mechanism and drug delivered via the ingestible device with various pressures.

[3] = Non-reducing SDS-PAGE protein profile of jet-dispensed adalimumab (drug structure); assay type: physicochemical
From the text: The purpose of this study was to evaluate the effects that nozzle geometry and delivery pressure have on drug structure when the drug is dispensed from a jet delivery device using different delivery pressures and nozzle sizes. Structural changes in the jet-delivered drug could potentially result in compromised functioning of the drug in vitro.
The drug (adalimumab drug substance (DS)) was loaded into the simulated capsule jet delivery device and ejected using different pressures and nozzle geometries.
The resulting protein concentrations were obtained using an extinction coefficient of 1.4 and Gen5 version 3.03.14 program. The samples were then diluted and the protein profiles were analyzed using non-reducing SDS-PAGE. Protein banding patterns of the dispensed samples were compared to that of the unmanipulated drug and the drug artificially damaged (enzymatically degraded) via the papain in a commercial Fab fragmentation kit (Pierce™ Fab Preparation Kit).
For gel analysis, protein was mixed with non-reducing sample buffer. Samples were not heated. 5 μg of samples and controls were loaded per lane of a SDS-PAGE gel (4% Acrylamide-Bis stacking, 12% resolving; see Table 26). The gel was electrophoresed at 195 V and stained in R-250 Coomassie Blue dye.

[4] = Adalimumab plasma PK after ID administration via endoscopic injection needle; assay type: in vivo, female Yorkshire pigs (Sus scrofa domesticus); conditions: 5 pigs in two studies
Protocol: A total of 5 healthy female Yorkshire pigs (Sus scrofa domesticus) having a body weight of ˜25-40 kg were used in these studies, 3 in a first study and 2 in a second study. Each animal received test article via intraduodenal (ID) administration via an injection needle. The study design is shown below in Table 34.
Animals were housed one per cage and fasted for a minimum of 12 hours prior to dosing. Food was returned at 4 hours post-dose. Water was supplied ad libitum.
Intraduodenal (ID) administration was performed as follows. […] Once it was confirmed that the endoscopic injection needle was placed in the correct region, approximately 0.5 mL of saline was injected within the lamina propria of the mucosa to create a small bleb in the mucosa. The formulation was then injected into the bleb and flushed with approximately 0.8 mL of saline. […]
as §2, with “reader” for “reader is”

[5] = Group 1: ID, 2 nozzle jet delivery device 220 PSIG, 40 mg, N=2, plasma
[6] = Group 3: ID, 2 Nozzle device 320 PSIG, N=5, data from Example 5
[7] = Group 3: ID, 2 Nozzle device 320 PSIG, data from Example 5
[8] = Group 3: ID, 2 nozzle jet delivery device 320 PSIG, 40 mg, N=5, plasma
[9] = Group 4: SC control, N=3, data from Example 5
[10] = Group 4: SC control, data from Example 5
[11] = Group 5: IV control, N=3, data from Example 5
[12] = Group 1: ID, 4 Nozzle device 320 PSIG
[13] = Group 2: ID, 4 Nozzle device 350 PSIG

adalimumab
Cmax [1, 5]: 570 ng/mL | Tmax [1, 5]: 24 h | Tmax ([1]; Group 2: ID, 2 nozzle jet delivery device 270 PSIG, 40 mg, N=4, plasma): 24 h | AUC0-10 (±SEM) [1, 6]: 32.31 µg·days/mL | AUC0-10 Corrected for Dose (±SEM) [1, 6]: 32.25 µg·days/mL | Cmax [1, 6]: 5000 ng/mL | Tmax [1, 6]: 24 h | Bioavailability over IV (±SEM) [1, 7]: 26.25 | Bioavailability over SC (±SEM) [1, 7]: 35.38 | Cmax [1, 8]: 5000 ng/mL | Tmax [1, 8]: 24 h | AUC0-10 (±SEM) [1, 9]: 91.87 µg·days/mL | Tmax [1, 9]: 140 h | Bioavailability over IV (±SEM) [1, 10]: 74.89 | Bioavailability over SC (±SEM) [1, 10]: 100 | Tmax ([1]; Group 4: SC, 40 mg, N=3, plasma): 140 h | Bioavailability over IV ([1]; Group 5: IV): 100% | AUC0-10 (±SEM) [1, 11]: 122.67 µg·days/mL | Tmax [1, 11]: 3.12 h | Bioavailability over IV (±SEM) ([1]; Group 5: IV control, data from Example 5): 100 | Tmax ([1]; Group 5: IV, 40 mg, N=3, plasma): 3.12 h | AUC0-10 (±SEM) [2, 12]: 23.831 µg·days/mL | Tmax [2, 12]: 24 h | AUC0-10 Corrected for Dose (±SEM) [2, 12]: 23.997 µg·days/mL | Bioavailability over IV (±SEM) [2, 12]: 19.560 | Bioavailability over SC (±SEM) [2, 12]: 26.120 | AUC0-10 (±SEM) [2, 13]: 14.603 µg·days/mL | Tmax [2, 13]: 24 h | AUC0-10 Corrected for Dose (±SEM) [2, 13]: 15.171 µg·days/mL | Bioavailability over IV (±SEM) [2, 13]: 12.367 | Bioavailability over SC (±SEM) [2, 13]: 16.513 | ability of the drug to bind to the target TNFα after jet delivery (TNFα): did not significantly inhibit the ability of the drug to bind to the target TNFα | protein banding pattern, non-reducing SDS-PAGE ([3]; 5 μg per lane, jet-delivered samples versus unmanipulated drug and papain-degraded controls): same banding pattern as the unmanipulated drug | structural changes after dispensing ([3]; dispensing pressures and nozzle sizes employed): No structural changes were evident | quantifiable levels in plasma [4]: one animal from the first study and one animal from the second study had quantifiable levels
